Laboratory results as given in article PMC7610366 (Nature chemical biology, 2020).
One block for each molecule: values may come before it.

How the values were obtained:
[1] = biological target: 6xHis-tagged RcsF (E. coli) (UniProt P69411); test: BLI
[2] = biological target: Untagged BamA (E. coli), P0A940; test: BLI; settings: remark: other sources report otherwise
[3] = biological target: BamAB sub-complex (E. coli, UniProt P0A940;P77774, lipid moiety); test: native gel or EMSA
[4] = biological target: BamABCDE holocomplex (E. coli, UniProt P0A940;P77774;P0A903;P0AC02;P0A937, lipid moiety | lipid moiety | lipid moiety | lipid moiety); test: native gel or EMSA
BamABCDE holocomplex, sequence (P77774 20-392, chain 2 of 4): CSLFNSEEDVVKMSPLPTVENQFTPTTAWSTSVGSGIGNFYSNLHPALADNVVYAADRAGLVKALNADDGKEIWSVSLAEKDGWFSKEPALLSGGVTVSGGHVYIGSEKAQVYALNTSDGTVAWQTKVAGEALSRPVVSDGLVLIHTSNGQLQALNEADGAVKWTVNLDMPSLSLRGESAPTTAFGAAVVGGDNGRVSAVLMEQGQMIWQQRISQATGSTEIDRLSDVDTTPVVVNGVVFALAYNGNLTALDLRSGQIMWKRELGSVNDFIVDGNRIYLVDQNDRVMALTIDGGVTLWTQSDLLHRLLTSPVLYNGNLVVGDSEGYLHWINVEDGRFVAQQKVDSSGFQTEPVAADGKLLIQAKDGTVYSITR
BamABCDE holocomplex, sequence (P0A903 25-344, chain 3 of 4): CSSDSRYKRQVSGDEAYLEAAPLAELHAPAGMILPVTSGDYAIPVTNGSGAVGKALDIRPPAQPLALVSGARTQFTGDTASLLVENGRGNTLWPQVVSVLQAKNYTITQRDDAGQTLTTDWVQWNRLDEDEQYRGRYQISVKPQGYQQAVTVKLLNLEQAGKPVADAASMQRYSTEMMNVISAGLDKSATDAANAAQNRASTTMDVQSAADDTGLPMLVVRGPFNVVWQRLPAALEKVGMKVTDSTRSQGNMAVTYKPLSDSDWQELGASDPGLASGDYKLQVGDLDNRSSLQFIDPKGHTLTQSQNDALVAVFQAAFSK
BamABCDE holocomplex, sequence (P0AC02 20-245, chain 4 of 4): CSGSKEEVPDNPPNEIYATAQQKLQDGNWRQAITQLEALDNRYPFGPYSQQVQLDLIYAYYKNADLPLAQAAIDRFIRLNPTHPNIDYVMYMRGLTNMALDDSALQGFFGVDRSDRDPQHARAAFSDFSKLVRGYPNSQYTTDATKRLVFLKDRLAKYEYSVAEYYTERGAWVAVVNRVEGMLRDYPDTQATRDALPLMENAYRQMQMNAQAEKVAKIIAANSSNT
BamABCDE holocomplex, sequence (P0A937 20-113, chain 5 of 4): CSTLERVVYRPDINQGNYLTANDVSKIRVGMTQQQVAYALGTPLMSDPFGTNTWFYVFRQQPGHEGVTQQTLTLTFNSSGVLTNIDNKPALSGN

BamAB sub-complex, sequence (P77774 20-392, one chain of several): as the sequence (P77774 20-392, chain 2 of 4) above

Kd [1]: 420 nM
Molecule: Untagged BamA (from UniProt P0A940 21-810) (natural protein; other documents disagree on this pair)

Kd [2]: 350 nM
B1: 6xHis-tagged RcsF, P69411 16-134 (natural protein)
chain: CSMLSRSPVEPVQSTAPQPKAEPAKPKAPRATPVRIYTNAEELVGKPFRDLGEVSGDSCQASNQDSPPSIPTARKRMQINASKMKANAVLLHSCEVTSGTPGCYRQAVCIGSALNITAK
modifications: here or on the partner: biotin (EZ-Link NHS-PEG4-biotin) where immobilised on streptavidin tips

binding result [3]: binds
binding result [4]: binds
B2: RcsF (natural protein)
chain: CSMLSRSPVEPVQSTAPQPKAEPAKPKAPRATPVRIYTNAEELVGKPFRDLGEVSGDSCQASNQDSPPSIPTARKRMQINASKMKANAVLLHSCEVTSGTPGCYRQAVCIGSALNITAK
modifications: lipid anchor
